{
  "source": "FireProtDB (doi:10.1002/prot.1147)",
  "proteins": {"B1": {"name": "Lysozyme C wild type, P61626 (protein)", "chain": "MKALIVLGLVLLSVTVQGKVFERCELARTLKRLGMDGYRGISLANWMCLAKWESGYNTRATNYNAGDRSTDYGIFQINSRYWCNDGKTPGAVNACHLSCSALLQDNIADAVACAKRVVRDPQGIRAWVAWRNRCQNRDVRQYVQGCGV"}},
  "details": "Homo sapiens; pH 2.7; Thermal; DSC; Gly-HCl 0.05 M; reversible: yes; whole UniProt chain shown",
  "data": [
    {"protein": "B1", "values": [
      {"measurement": "Tm", "result": 64.9, "unit": "°C"},
      {"measurement": "heat capacity change of unfolding", "result": 1.58, "unit": "kcal/mol/K"},
      {"measurement": "unfolding enthalpy (van 't Hoff)", "result": 114, "unit": "kcal/mol"}
    ]}
  ]
}
